Source: publication PMC11818384, “Structural Characteristics and Properties of the RNA-Binding Protein hnRNPK at Multiple Physical States” (International Journal of Molecular Sciences, 2025)
Values joined by “and” are separate entries in the source; they are usually repeats but may differ in a detail not shown here. Equal values may be shown once.

Legend:
[1] = biological target: the molecule itself; experiment: SEC-MALS; SEC-LS (RALS, RI, UV) on Superdex 200 Increase 10/300 run at room temperature; hnRNPK sample kept at 4 °C (vial holder at 4 °C), low concentration
[2] = biological target: the molecule itself; experiment: SEC-MALS; SEC-LS (RALS, RI, UV) on Superdex 200 Increase 10/300 at room temperature; hnRNPK sample incubated at room temperature

B1: Heterogeneous nuclear ribonucleoprotein K (hnRNPK), full-length wild type with an additional N-terminal glycine (natural protein)
chain: not shown
notes: additional glycine residue at the N-terminus, told in words; heterogeneous nuclear ribonucleoprotein K, full-length wild type; theoretical molar mass with the extra glycine 51,033 Da; also called H-hnRNPK; hydrogenated hnRNPK; source: E. coli Rosetta2 (DE3), purified (Ni Hi-trap, TEV cleavage, second Hi-trap, Superdex 200); not shown: His6, N-terminal, cleaved; eGFP, N-terminal, cleaved
- stoichiometry N [1]: 1.98 hnRNPK molecules per particle (measured MM : theoretical MM)
- stoichiometry N [2]: 2.88 hnRNPK molecules per particle (measured MM : theoretical MM) and 1.53 hnRNPK molecules per particle (measured MM : theoretical MM)
